IntAct's records for PubMed 23603394

B1: PH and SEC7 domain-containing protein 1 (Homo sapiens), A5PKW4 (parent)
chain: MAQGAMRFCSEGDCAISPPRCPRRWLPEGPVPQSPPASMYGSTGSLLRRVAGPGPRGRELGRVTAPCTPLRGPPSPRVAPSPWAPSSPTGQPPPGAQSSVVIFRFVEKASVRPLNGLPAPGGLSRSWDLGGVSPPRPTPALGPGSNRKLRLEASTSDPLPARGGSALPGSRNLVHGPPAPPQVGADGLYSSLPNGLGGPPERLATLFGGPADTGFLNQGDTWSSPREVSSHAQRIARAKWEFFYGSLDPPSSGAKPPEQAPPSPPGVGSRQGSGVAVGRAAKYSETDLDTVPLRCYRETDIDEVLAEREEADSAIESQPSSEGPPGTAYPPAPRPGPLPGPHPSLGSGNEDEDDDEAGGEEDVDDEVFEASEGARPGSRMPLKSPVPFLPGTSPSADGPDSFSCVFEAILESHRAKGTSYTSLASLEALASPGPTQSPFFTFELPPQPPAPRPDPPAPAPLAPLEPDSGTSSAADGPWTQRGEEEEAEARAKLAPGREPPSPCHSEDSLGLGAAPLGSEPPLSQLVSDSDSELDSTERLALGSTDTLSNGQKADLEAAQRLAKRLYRLDGFRKADVARHLGKNNDFSKLVAGEYLKFFVFTGMTLDQALRVFLKELALMGETQERERVLAHFSQRYFQCNPEALSSEDGAHTLTCALMLLNTDLHGHNIGKRMTCGDFIGNLEGLNDGGDFPRELLKALYSSIKNEKLQWAIDEEELRRSLSELADPNPKVIKRISGGSGSGSSPFLDLTPEPGAAVYKHGALVRKVHADPDCRKTPRGKRGWKSFHGILKGMILYLQKEEYKPGKALSETELKNAISIHHALATRASDYSKRPHVFYLRTADWRVFLFQAPSLEQMQSWITRINVVAAMFSAPPFPAAVSSQKKFSRPLLPSAATRLSQEEQVRTHEAKLKAMASELREHRAAQLGKKGRGKEAEEQRQKEAYLEFEKSRYSTYAALLRVKLKAGSEELDAVEAALAQAGSTEDGLPPSHSSPSLQPKPSSQPRAQRHSSEPRPGAGSGRRKP

Variants of: B1
Settings: with arf6_human ARF6, P62330
Sequence of arf6_human ARF6, P62330 (P62330 whole entry): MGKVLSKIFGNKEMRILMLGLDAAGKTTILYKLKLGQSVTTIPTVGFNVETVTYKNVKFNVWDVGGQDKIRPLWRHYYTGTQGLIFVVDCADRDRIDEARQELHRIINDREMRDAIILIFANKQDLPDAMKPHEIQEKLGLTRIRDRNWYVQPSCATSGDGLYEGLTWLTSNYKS

effect of a mutation on the interaction	Variant
decreasing interaction	K766E
decreasing interaction	R765E

Variants of: B1
Settings: with arf6_human ARF6, P62330
Remark: another data set of the same source

effect of a mutation on the interaction	Variant
disrupting interaction	E621K

Variants of: B1
Settings: with arf6_human ARF6, P62330
Remark: another data set of the same source

effect of a mutation on the interaction	Variant
decreasing interaction	E621K
